Results from IntAct's records for PubMed 31515488.

B1: THAP domain-containing protein 7 (Homo sapiens), Q9BT49 (parent)
chain: MPRHCSAAGCCTRDTRETRNRGISFHRLPKKDNPRRGLWLANCQRLDPSGQGLWDPASEYIYFCSKHFEEDCFELVGISGYHRLKEGAVPTIFESFSKLRRTTKTKGHSYPPGPAEVSRLRRCRKRCSEGRGPTTPFSPPPPADVTCFPVEEASAPATLPASPAGRLEPGLSSPFSDLLGPLGAQADEAGCSAQPSPERQPSPLEPRPVSPSAYMLRLPPPAGAYIQNEHSYQVGSALLWKRRAEAALDALDKAQRQLQACKRREQRLRLRLTKLQQERAREKRAQADARQTLKEHVQDFAMQLSSSMA
B2: Homeobox protein VENTX (Homo sapiens), O95231 (parent)
chain: MRLSSSPPRGPQQLSSFGSVDWLSQSSCSGPTHTPRPADFSLGSLPGPGQTSGAREPPQAVSIKEAAGSSNLPAPERTMAGLSKEPNTLRAPRVRTAFTMEQVRTLEGVFQHHQYLSPLERKRLAREMQLSEVQIKTWFQNRRMKHKRQMQDPQLHSPFSGSLHAPPAFYSTSSGLANGLQLLCPWAPLSGPQALMLPPGSFWGLCQVAQEALASAGASCCGQPLASHPPTPGRPSLGPALSTGPRGLCAMPQTGDAF
partner: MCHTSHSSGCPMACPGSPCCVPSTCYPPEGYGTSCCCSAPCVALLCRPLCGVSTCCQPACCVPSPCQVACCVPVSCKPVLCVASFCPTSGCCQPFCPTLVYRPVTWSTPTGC
B3: Cyclic AMP-dependent transcription factor ATF-4 (Homo sapiens), P18848 (parent)
chain: MTEMSFLSSEVLVGDLMSPFDQSGLGAEESLGLLDDYLEVAKHFKPHGFSSDKAKAGSSEWLAVDGLVSPSNNSKEDAFSGTDWMLEKMDLKEFDLDALLGIDDLETMPDDLLTTLDDTCDLFAPLVQETNKQPPQTVNPIGHLPESLTKPDQVAPFTFLQPLPLSPGVLSSTPDHSFSLELGSEVDITEGDRKPDYTAYVAMIPQCIKEEDTPSDNDSGICMSPESYLGSPQHSPSTRGSPNRSLPSPGVLCGSARPKPYDPPGEKMVAAKVKGEKLDKKLKKMEQNKTAATRYRQKKRAEQEALTGECKELEKKNEALKERADSLAKEIQYLKDLIEEVRKARGKKRVP
partner: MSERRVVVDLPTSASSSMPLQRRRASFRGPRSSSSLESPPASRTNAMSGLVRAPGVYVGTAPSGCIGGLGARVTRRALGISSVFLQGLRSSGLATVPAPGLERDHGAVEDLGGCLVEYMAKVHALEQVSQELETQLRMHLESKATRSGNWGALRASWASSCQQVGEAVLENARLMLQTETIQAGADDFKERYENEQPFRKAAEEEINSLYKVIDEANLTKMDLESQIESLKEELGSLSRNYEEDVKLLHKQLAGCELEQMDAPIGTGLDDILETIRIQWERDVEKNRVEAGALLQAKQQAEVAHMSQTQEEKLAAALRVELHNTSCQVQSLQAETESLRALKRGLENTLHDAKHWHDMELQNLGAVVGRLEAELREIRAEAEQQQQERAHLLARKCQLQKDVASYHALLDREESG

Variants of: B1
Settings: with mdfi_human MDFI

Row | effect of a mutation on the interaction | Variant
1 | disrupting interaction strength | MPRHCSAAGCCTRDTRETRNRGISFHRLPKKDNPRRGLWLANCQRLDPSGQGLWDPASEYIYFCSKHFEEDCFELVGISGYHRLKEGAVPTIFESFSKLRRTTKTKGHSYPPGPAEVSRLRRCRKRCSEGRGPTTPFSPPPPADVTCFPVEEASAPATLPASPAGRLDPGLSSPFSDLLGPLGAQADEAGCSAQPSPERQPSPLEPRPVSPSAYMLRLPPPAGAYIQNEHSYQVGSALLWKRRAEAALDALDKAQRQLQACKRREQRLRLRLTKLQQERAREKRAQADARQTLKEHVQDFAMQLSSSMA [E168D]

Variants of: B1
Settings: with traf2_human TRAF2, Q12933
Chain of traf2_human TRAF2, Q12933 (Q12933 whole entry): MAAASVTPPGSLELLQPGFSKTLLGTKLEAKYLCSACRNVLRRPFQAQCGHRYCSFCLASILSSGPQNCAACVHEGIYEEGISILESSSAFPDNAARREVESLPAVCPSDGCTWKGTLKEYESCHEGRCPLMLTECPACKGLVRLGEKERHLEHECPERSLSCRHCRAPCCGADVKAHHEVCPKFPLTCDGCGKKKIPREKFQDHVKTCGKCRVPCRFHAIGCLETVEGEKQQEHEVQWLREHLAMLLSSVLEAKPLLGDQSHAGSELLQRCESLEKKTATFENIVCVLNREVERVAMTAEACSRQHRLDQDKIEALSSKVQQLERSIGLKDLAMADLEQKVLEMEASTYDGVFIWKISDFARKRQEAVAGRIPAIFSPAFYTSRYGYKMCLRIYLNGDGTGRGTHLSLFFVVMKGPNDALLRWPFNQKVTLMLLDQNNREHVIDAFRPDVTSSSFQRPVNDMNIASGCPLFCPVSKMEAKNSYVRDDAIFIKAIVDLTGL

Row | effect of a mutation on the interaction | Variant
2 | with no effect | MPRHCSAAGCCTRDTRETRNRGISFHRLPKKDNPRRGLWLANCQRLDPSGQGLWDPASEYIYFCSKHFEEDCFELVGISGYHRLKEGAVPTIFESFSKLRRTTKTKGHSYPPGPAEVSRLRRCRKRCSEGRGPTTPFSPPPPADVTCFPVEEASAPATLPASPAGRLDPGLSSPFSDLLGPLGAQADEAGCSAQPSPERQPSPLEPRPVSPSAYMLRLPPPAGAYIQNEHSYQVGSALLWKRRAEAALDALDKAQRQLQACKRREQRLRLRLTKLQQERAREKRAQADARQTLKEHVQDFAMQLSSSMA [E168D]

Variants of: B1
Settings: with set_human SET

Row | effect of a mutation on the interaction | Variant
3 | with no effect | MPRHCSAAGCCTRDTRETRNRGISFHRLPKKDNPRRGLWLANCQRLDPSGQGLWDPASEYIYFCSKHFEEDCFELVGISGYHRLKEGAVPTIFESFSKLRRTTKTKGHSYPPGPAEVSRLRRCRKRCSEGRGPTTPFSPPPPADVTCFPVEEASAPATLPASPAGRLDPGLSSPFSDLLGPLGAQADEAGCSAQPSPERQPSPLEPRPVSPSAYMLRLPPPAGAYIQNEHSYQVGSALLWKRRAEAALDALDKAQRQLQACKRREQRLRLRLTKLQQERAREKRAQADARQTLKEHVQDFAMQLSSSMA [E168D]

Variants of: B2
Settings: with kr124_human KRTAP12-4, P60329

Row | effect of a mutation on the interaction | Variant
4 | with no effect | MRLSSSPPRGPQQLSSFGSVDWLSQSSCSGPTHTPRPADFSLGSLPGPGQTSGAREPPQAVSIKEAAGSSNLPAPERTMAGLSKEPNTLRAPRVRTAFTMEQVRTLEGVFQHHQYLSPLERKRLAREMQLSEVQIKTWFQNRRMKHKRQMQDPQLHSPFSGSLHAPPAFYSTSSGLANGLQLLCPWAPLSGPQALMLPPGSFWGLCQVAQEALASAGASCCGQPLASHPPTPGRPSLGPALSTGPRGLCAVPQTGDAF [M251V]
5 | with no effect | MRLSSSPPRGPQQLSSFGSVDWLSQSSCSGPTHTPRPADFSLGSLPGPGQTSGAREPPQAVSIKEAAGSSNLPAPERTMAGLSKEPNTLRAPRVRTAFTMEQVRTLEGVFQHHQYLSPLERKRLAREMQLSEVQIKTWFQNRRMKHKRQMQDPQLHSPFSGSLHAPPAFYSTSSGLANGLQLLCPWAPLSGPQALMLPPGSFWGLCQVAQEALASAGASCCGQPLESHPPTPGRPSLGPALSTGPRGLCAMPQTGDAF [A226E]
6 | with no effect | MRLSSSPPRGPQQLSSFGSVDWLSQSSCSGPTHTPRPADFSPGSLPGPGQTSGAREPPQAVSIKEAAGSSNLPAPERTMAGLSKEPNTLRAPRVRTAFTMEQVRTLEGVFQHHQYLSPLERKRLAREMQLSEVQIKTWFQNRRMKHKRQMQDPQLHSPFSGSLHAPPAFYSTSSGLANGLQLLCPWAPLSGPQALMLPPGSFWGLCQVAQEALASAGASCCGQPLASHPPTPGRPSLGPALSTGPRGLCAMPQTGDAF [L42P]

Variants of: B3
Settings: with bfsp2_human BFSP2, Q13515

Row | effect of a mutation on the interaction | Variant
7 | with no effect | MTEMSFLSSEVLVGDLMSPFDQSGLGAEESLGLLDDYLEVAKHFKPHGFSSDKAKAGSSEWLAVDGLVSPSNNSKEDAFSGTDWMLEKMDLKEFDLDALLGIDDLETMPDDLLTTLDDTCDLFAPLVQETNKQPPQTVNPIGHLPESLTKPDQVAPFTFLQPLPLSPGVLSSTPDHSFSLELGSEVDITEGDRKPDYTAYVAMIPQCIKEEDTPSDNDSGICMSPESYLGSPQHSPSTRGSPNRSLPSPGVLCGSARAKPYDPPGEKMVAAKVKGEKLDKKLKKMEQNKTAATRYRQKKRAEQEALTGECKELEKKNEALKERADSLAKEIQYLKDLIEEVRKARGKKRVP [P258A]
8 | with no effect | MTEMSFLSSEVLVGDLMSPFDQSGLGAEESLGLLDDYLEVAKHFKPHGFSSDKAKAGSSEWLAVDGLVSPSNNSKEDAFSGTDWMLEKMDLKEFDLDALLGIDDLETMPDDLLTTLDDTCDLFAPLVQETNKQPPQTVNPIGHLPESLTKPDQVAPFTFLQPLPLSPGVLSSTPDHSFSLELGSEVDITEGDRKPDYTAYVAMIPQCIKEEDTPSDNDSGICMSPESYLGSPQHSPSTRGSPNRSLPSPGVLCGSARPKPYDPPGEKMVAAKVKGEKLDKKLKKMEQNKTAATRYRQKKRAEQEALTGECKELEKKNEALKERVDSLAKEIQYLKDLIEEVRKARGKKRVP [A324V]
9 | with no effect | MTEMSFLSSEVLVGDLMSPFDQSGLGAEESLGLLDDYLEVAKHFKPHGFSSDKAKAGSSEWLAVDGLVSPSNNSKEDAFSGTDWMLEKMDLKEFDLDALLGIDDLETMPDDLLTTLDDTCDLFAPLVQETNKQPPQSVNPIGHLPESLTKPDQVAPFTFLQPLPLSPGVLSSTPDHSFSLELGSEVDITEGDRKPDYTAYVAMIPQCIKEEDTPSDNDSGICMSPESYLGSPQHSPSTRGSPNRSLPSPGVLCGSARPKPYDPPGEKMVAAKVKGEKLDKKLKKMEQNKTAATRYRQKKRAEQEALTGECKELEKKNEALKERADSLAKEIQYLKDLIEEVRKARGKKRVP [T137S]
